{"source": "paper PMC3364216", "about": "“The RuvA Homologues from Mycoplasma genitalium and Mycoplasma pneumoniae Exhibit Unique Functional Characteristics”", "key": {"[1]": {"target": "T1, RuvAMpn (Mycoplasma pneumoniae M129 (ATCC 29342), UniProt P75243 1-206)", "T1 sequence": "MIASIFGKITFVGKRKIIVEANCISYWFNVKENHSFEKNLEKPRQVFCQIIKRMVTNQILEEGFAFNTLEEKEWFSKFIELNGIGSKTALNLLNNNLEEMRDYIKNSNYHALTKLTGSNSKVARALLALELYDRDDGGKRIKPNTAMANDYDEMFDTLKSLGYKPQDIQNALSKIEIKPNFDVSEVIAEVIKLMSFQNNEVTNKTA", "experiment": "EMSA; no Mg2+; two complexes (I and II); 20 mM Tris-HCl pH 7.5, 1 mM DTT, 1 mM EDTA, 12.3 nM DNA, 10 ul, on ice 10 min; 8% PAGE in 0.5x TBE; +/- 10 mM Mg2+", "details": "protein: recombinant; tags: N-terminal H10 (pET-16b); chain copies: 4; four-way Holliday junction HJ11:HJ12:HJ13:HJ14"}, "[2]": {"target": "T2, RuvAMge (Mycoplasma genitalium G37 (ATCC 33530), UniProt Q49424 1-205)", "experiment": "EMSA; no Mg2+; single complex up to 4 uM protein; 20 mM Tris-HCl pH 7.5, 1 mM DTT, 1 mM EDTA, 12.3 nM DNA, 10 ul, on ice 10 min; 8% PAGE in 0.5x TBE; +/- 10 mM Mg2+", "details": "protein: recombinant; tags: N-terminal H10 (pET-16b); chain copies: 4; four-way Holliday junction HJ11:HJ12:HJ13:HJ14"}, "[3]": {"target": "RecUMge (Mycoplasma genitalium, UniProt Q49422 1-166)", "experiment": "EMSA; on ice, no BSA; three major and one minor complex at 500 nM; 20 mM Tris-HCl pH 7.5, 1 mM DTT, 1 mM EDTA, 12.3 nM DNA, 10 ul, on ice 10 min; 8% PAGE in 0.5x TBE; +/- 10 mM Mg2+"}, "[4]": {"target": "T2, RuvAMge", "experiment": "EMSA; no Mg2+; part of the complexes is with residual ss HJ11; 20 mM Tris-HCl pH 7.5, 1 mM DTT, 1 mM EDTA, 12.3 nM DNA, 10 ul, on ice 10 min; 8% PAGE in 0.5x TBE; +/- 10 mM Mg2+", "details": "protein: recombinant; tags: N-terminal H10 (pET-16b); chain copies: 4; 5' overhang 1 nt on HJ11rv"}, "[5]": {"target": "T1, RuvAMpn", "experiment": "EMSA; no Mg2+; part of the complexes is with residual ss HJ11; 20 mM Tris-HCl pH 7.5, 1 mM DTT, 1 mM EDTA, 12.3 nM DNA, 10 ul, on ice 10 min; 8% PAGE in 0.5x TBE; +/- 10 mM Mg2+", "details": "protein: recombinant; tags: N-terminal H10 (pET-16b); chain copies: 4; 5' overhang 1 nt on HJ11rv"}, "[6]": {"target": "T1, RuvAMpn", "experiment": "EMSA; no Mg2+; efficiency similar to HJ; 20 mM Tris-HCl pH 7.5, 1 mM DTT, 1 mM EDTA, 12.3 nM DNA, 10 ul, on ice 10 min; 8% PAGE in 0.5x TBE; +/- 10 mM Mg2+", "details": "protein: recombinant; tags: N-terminal H10 (pET-16b); single strand"}}}
{"binder": "HJ 1.1 (structured_DNA) DNA 1: GCGACGTGATCACCAGATGATTGCTAGGCATGCTTTCCGCAAGAGAAGC DNA 2: GGCTTCTCTTGCGGAAAGCATGCCTAGCAATCCTGTCAGCTGCATGGAAC DNA 3: GGTTCCATGCAGCTGACAGGATTGCTAGGCTCAAGGCGAACTGCTAACGG DNA 4: ACCGTTAGCAGTTCGCCTTGAGCCTAGCAATCATCTGGTGATCACGTCGC", "values": [{"measurement": "binding result", "setting": "[1]", "result": "binds"}, {"measurement": "binding result", "setting": "[2]", "result": "binds"}, {"measurement": "binding result", "setting": "[3]", "result": "binds"}]}
{"binder": "HJ11/HJ11rv (dsDNA) DNA 1: GCGACGTGATCACCAGATGATTGCTAGGCATGCTTTCCGCAAGAGAAGC DNA 2: GGCTTCTCTTGCGGAAAGCATGCCTAGCAATCATCTGGTGATCACGTCGC", "values": [{"measurement": "binding result", "setting": "[4]", "result": "binds"}, {"measurement": "binding result", "setting": "[5]", "result": "binds"}]}
{"binder": "GCGACGTGATCACCAGATGATTGCTAGGCATGCTTTCCGCAAGAGAAGC (ssDNA)", "note": "[HJ11]", "values": [{"measurement": "binding result", "setting": "[6]", "result": "binds"}]}
